# Experimental data: IntAct's records for PubMed 21900546
# B1: Neutrophil cytosol factor 2 (Homo sapiens), P19878 (parent)
# chain: MSLVEAISLWNEGVLAADKKDWKGALDAFSAVQDPHSRICFNIGCMYTILKNMTEAEKAFTRSINRDKHLAVAYFQRGMLYYQTEKYDLAIKDLKEALIQLRGNQLIDYKILGLQFKLFACEVLYNIAFMYAKKEEWKKAEEQLALATSMKSEPRHSKIDKAMECVWKQKLYEPVVIPVGKLFRPNERQVAQLAKKDYLGKATVVASVVDQDSFSGFAPLQPQAAEPPPRPKTPEIFRALEGEAHRVLFGFVPETKEELQVMPGNIVFVLKKGNDNWATVMFNGQKGLVPCNYLEPVELRIHPQQQPQEESSPQSDIPAPPSSKAPGRPQLSPGQKQKEEPKEVKLSVPMPYTLKVHYKYTVVMKTQPGLPYSQVRDMVSKKLELRLEHTKLSYRPRDSNELVPLSEDSMKDAWGQVKNYCLTLWCENTVGDQGFPDEPKESEKADANNQTTEPQLKKGSQVEALFSYEATQPEDLEFQEGDIILVLSKVNEEWLEGECKGKVGIFPKVFVEDCATTDLESTRREV
# Variants of: B1
# Details: with rac2_human RAC2, P15153
row,Variant,effect of a mutation on the interaction
1,R38Q,decreasing interaction strength
